Values quoted from earlier work, collected in patent US8865021B2, “Compositions of lipids and cationic peptides” (Camurus AB, priority 2003, dated 2014).
Residues, ends and D or L forms follow the SMILES beside them. No end group written: not given here.

B1: IL-11 (protein, UniProt P20809 22-199, looked up)
Interleukin-11: PGPPPGPPRVSPDPRAELDSTVLLTRSLLADTRQLAAQLRDKFPADGDHNLDSLPTLAMSAGALGALQLPGVLTRLRADLLSYLRHVQWLRRAGGSSLKTLEPELGTLQARLDRLLRRLQLLMSRLALPQPPPDPPAPPLAPPSSAWGGIRAAHAILGGLHLTLDWAVRGLLLLKTRL
B2: Interferon-gamma (protein, UniProt P01579 24-161, looked up)
Interferon gamma: QDPYVKEAENLKKYFNAGHSDVADNGTLFLGILKNWKEESDRKIMQSQIVSFYFKLFKNFKDDQSIQKSVETIKEDMNVKFFNSNKKKRDDFEKLTNYSVTDLNVQRKAIHELIQVMAELSPAAKTGKRKRSQMLFRG
B3: Interferon-alpha 1/13 (protein, UniProt P01562 24-189, looked up)
Interferon alpha-1/13: CDLPETHSLDNRRTLMLLAQMSRISPSSCLMDRHDFGFPQEEFDGNQFQKAPAISVLHELIQQIFNLFTTKDSSAAWDEDLLDKFCTELYQQLNDLEACVMQEERVGETPLMNADSILAVKKYFRRITLYLTEKKYSPCAWEVVRAEIMRSLSLSTNLQERLRRKE
B4: Filgrastim (protein, UniProt P09919 31-207, looked up)
Granulocyte …: TPLGPASSLPQSFLLKCLEQVRKIQGDGAALQEKLVSECATYKLCHPEELVLLGHSLGIPWAPLSSCPSQALQLAGCLSQLHSGLFLYQGLLQALEGISPELGPTLDTLQLDVADFATTIWQQMEELGMAPALQPTQGAMPAFASAFQRRAGGVLVASHLQSFLEVSYRVLRHLAQP
modifications: N-terminal methionine, non-glycosylated
notes: neutropenia
B5: human Chorionic Gonadotropin-beta (protein, UniProt P0DN86 21-165, looked up)
Choriogonadotropin subunit …: SKEPLRPRCRPINATLAVEKEGCPVCITVNTTICAGYCPTMTRVLQGVLPALPQVVCNYRDVRFESIRLPGCPRGVNPVVSYAVALSCQCALCRRSTTDCGGPKDHPLTCDDPRFQDSSSSKAPPPSLPSPSRLPGPSDTPILPQ
notes: Infertility
B6: IL-24 (protein, UniProt Q13007 52-206, looked up)
Interleukin-24: QEFHFGPCQVKGVVPQKLWEAFWAVKDTMQAQDNITSARLLQQEVLQNVSDAESCYLVHTLLEFYLKTVFKNYHNRTVEVRTLKSFSTLANNFVLIVSQLQPSQENEMFSIRDSAHRRFLLFRRAFKQLDVEAALTKALGEVDILLTWMQKFYKL
notes: Melanoma differentiation associated protein 7
B7: IL-26 (protein, UniProt Q9NPH9 22-171, looked up)
Interleukin-26: KHKQSSFTKSCYPRGTLSQAVDALYIKAAWLKATIPEDRIKNIRLLKKKTKKQFMKNCQFQEQLLSFFMEDVFGQLQLQGCKKIRFVEDFHSLRQKLSHCISCASSAREMKSITRMKRIFYRIGNKGIYKAISELDILLSWIKKLLESSQ
B8: IL-19 (protein, UniProt Q9UHD0 25-177, looked up)
Interleukin-19: LRRCLISTDMHHIEESFQEIKRAIQAKDTFPNVTILSTLETLQIIKPLDVCCVTKNLLAFYVDRVFKDHQEPNPKILRKISSIANSFLYMQKTLRQCQEQRQCHCRQEATNATRVIHDNYDQLEVHAAAIKSLGELDVFLAWINKNHEVMFSA
notes: Melanoma differentiation associated protein-like protein

Columns and labels:
[1] = for Isoelectric pH: Table 2; for isoelectric point: approximate values
[2] = salmon vs human calcitonin

Molecule	Isoelectric pH [1]	isoelectric point [1]	potency by weight relative to the human hormone [2]
CC[C@H](C)[C@@H]1NC(=O)[C@H](Cc2ccc(O)cc2)NC(=O)[C@@H](N)CSSC[C@@H](C(=O)N2CCC[C@H]2C(=O)N[C@@H](CC(C)C)C(=O)NCC(N)=O)NC(=O)[C@H](CC(N)=O)NC(=O)[C@H](CCC(N)=O)NC1=O [Oxytocin, reference compound]	5.51 pH	–	–
CC(C)[C@@H]1NC(=O)[C@H](CCCNC(=N)N)NC(=O)[C@H](Cc2ccccc2)NC(=O)[C@@H](NC(=O)[C@H](Cc2c[nH]c3ccccc23)NC(=O)[C@H](CCCNC(=N)N)NC(=O)[C@@H](N)CCCNC(=N)N)CSSC[C@@H](C(=O)N[C@@H](CCCNC(=N)N)C(N)=O)NC(=O)[C@H](CCCCN)NC(=O)[C@H](CCCNC(=N)N)NC(=O)[C@H](Cc2ccc(O)cc2)NC(=O)[C@@H]2CSSC[C@H](NC1=O)C(=O)N[C@@H](Cc1ccc(O)cc1)C(=O)N[C@@H](CCCCN)C(=O)NCC(=O)N[C@@H](Cc1ccccc1)C(=O)N2 [Polyphemusin II] (HELM PEPTIDE1{R.R.W.C.F.R.V.C.Y.K.G.F.C.Y.R.K.C.R.[am]}$PEPTIDE1,PEPTIDE1,4:R3-17:R3|PEPTIDE1,PEPTIDE1,8:R3-13:R3$$$V2.0)	10.1 pH	–	–
NC(=O)CC[C@@H]1NC(=O)[C@H](Cc2ccccc2)NC(=O)[C@H](Cc2ccc(O)cc2)NC(=O)[C@@H](N)CSSC[C@@H](C(=O)N2CCC[C@H]2C(=O)N[C@@H](CCCN=C(N)N)C(=O)NCC(N)=O)NC(=O)[C@H](CC(N)=O)NC1=O [Vassopresin, reference compound]	8.06 pH	around 8.0 pH	–
Alteplase	7.61 pH	–	–
Becaplermin	9.38 pH	–	–
Calcitonin (salmon) [reference compound]	8.86 pH	~8.9 pH	around 50 times
Follitropin-beta	5.91 pH	–	–
GMCSF	5.21 pH	–	–
IL-1 beta	5.91 pH	–	–
IL-1alpha	5.3 pH	–	–
IL-4	9.26 pH	–	–
IL-5	7.02 pH	–	–
IL-6	6.21 pH	–	–
IL-7	8.72 pH	–	–
IL-8	9.24 pH	–	–
IL-10	7.63 pH	–	–
IL-13	8.81 pH	–	–
IL-15	4.52 pH	–	–
IL-17	8.62 pH	–	–
IL-18	5.04 pH	–	–
Indolicidin (ILPWKWPWWPWRR; ends and bridges not checked; UniProt P33046 131-143, looked up) [Indolicidin (e.g. bovine), antibacterial, antifungal, anticancer, antiviral, antiparasite]	12.01 pH	–	–
Insulin α	3.79 pH	around 4 pH	–
Intercellular Adhesion Molecule 1	9.51 pH	–	–

Molecule	Isoelectric pH [1]	isoelectric point [1]	potency by weight relative to the human hormone [2]
Interleukin-1 receptor antagonist	8.51 pH	–	–
Lepirudin	4.04 pH	around 4 pH	–
Magainin I	10 pH	–	–
Magainin II	10 pH	–	–
Mellitin	12.02 pH	–	–
OspA	6.72 pH	–	–
Pneumadin	4.36 pH	–	–
Polyphemusin I (RRWCFRVCYRGFCYRKCR; ends and bridges not checked; cysteine pairing not given here; UniProt P14215 1-18, looked up) [antibacterial, antifungal, antiviral]	10.33 pH	–	–
Protegrin [Protegrin (e.g. swine)]	10.66 pH	–	–
Secretin (HSDGTFTSELSRLRDSARLQRLLQGLV; ends and bridges not checked; UniProt P63298 33-59, looked up) [Secretin (e.g. swine), pancreatic assessment, 27 amino acids, reference compound]	9.45 pH	–	–
Somatostatin [Somatostatin (& analogues), reference compound]	9.58 pH	–	–
Somatotropin	5.27 pH	–	–
Tachyplesin I (KWCFRVCYRGICYRRCR; ends and bridges not checked; cysteine pairing not given here; UniProt P14213 24-40, looked up) [antibacterial, antiviral, 17 amino acids]	9.93 pH	–	–
Tuftsin	11 pH	–	–
octreotide [reference compound]	–	around 8.0 pH	–
B1	11.16 pH	–	–
B2	9.54 pH	–	–
B3	5.18 pH	–	–
B4	5.43 pH	–	–
B5	8.65 pH	–	–
B6	8.6 pH	–	–
B7	9.99 pH	–	–
B8	7.8 pH	–	–
